Assay results published in US20260055205A1 (published 2026).

Key:
PSMA on LNCaP cells = PSMA on LNCaP cells (human, UniProt Q04609 1-750); assay: cell-based or functional assay
human CD3 epsilon [1] = target: T1, human CD3 epsilon (human, UniProt P07766 23-126, limits assumed); assay: Biacore
T1 construct: also called huCD3e

[2] = target: T2, cynomolgus monkey CD3 epsilon (cynomolgus monkey, UniProt Q95LI5 22-117, limits assumed); assay: Biacore
T2 construct: also called cyCD3e; cyno CD3
T2 sequence (looked up): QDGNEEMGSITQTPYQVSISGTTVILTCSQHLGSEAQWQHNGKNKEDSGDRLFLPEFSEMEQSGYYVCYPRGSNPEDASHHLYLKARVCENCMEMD

human CD3 epsilon [3] = target: T1, human CD3 epsilon; assay: BLI or SPR
[4] = target: T2, cynomolgus monkey CD3 epsilon; assay: BLI or SPR
[5] = target: T3, human PSMA on PSMA-transfected CHO cells (human, UniProt Q04609 1-750); assay: cell binding, labeled secondary antibody
T3 construct: whole, on cells; also called Hu PSMA CHO
T3 sequence (Q04609 whole entry): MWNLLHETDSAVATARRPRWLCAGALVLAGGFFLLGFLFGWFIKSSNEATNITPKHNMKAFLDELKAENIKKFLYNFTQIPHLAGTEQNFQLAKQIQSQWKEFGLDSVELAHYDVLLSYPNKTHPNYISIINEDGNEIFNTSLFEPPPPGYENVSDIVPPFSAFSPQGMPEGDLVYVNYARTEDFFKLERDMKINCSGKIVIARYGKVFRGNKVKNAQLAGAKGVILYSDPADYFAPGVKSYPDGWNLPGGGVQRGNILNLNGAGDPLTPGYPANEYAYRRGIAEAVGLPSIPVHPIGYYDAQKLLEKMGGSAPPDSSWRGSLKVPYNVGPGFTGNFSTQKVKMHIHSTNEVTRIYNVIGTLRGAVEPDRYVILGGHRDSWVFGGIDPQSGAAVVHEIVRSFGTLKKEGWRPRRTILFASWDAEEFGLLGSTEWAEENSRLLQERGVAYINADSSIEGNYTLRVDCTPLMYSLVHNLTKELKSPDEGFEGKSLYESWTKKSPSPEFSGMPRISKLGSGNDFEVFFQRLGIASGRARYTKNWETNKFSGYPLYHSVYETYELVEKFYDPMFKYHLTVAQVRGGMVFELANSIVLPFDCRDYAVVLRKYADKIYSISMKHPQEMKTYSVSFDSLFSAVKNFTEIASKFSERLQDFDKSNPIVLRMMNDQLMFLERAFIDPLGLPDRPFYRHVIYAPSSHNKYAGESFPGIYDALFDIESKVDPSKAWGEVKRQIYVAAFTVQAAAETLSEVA
Method: (§1) Surface binding was detected with a labeled secondary antibody specific for the anti-CD3 scFv.
(§2) The binding affinities to both human and cyno PSMA and human and cyno CD3 epsilon were determined.

PSMA on 22Rv1 cells = PSMA on 22Rv1 cells (human, UniProt Q04609 1-750); assay: cell-based or functional assay
Sequence of PSMA on 22Rv1 cells (Q04609 whole entry): as above

cynomolgus monkey PSMA [6] = target: T4, cynomolgus monkey PSMA (cynomolgus monkey, UniProt A0A2K5VNZ0 44-750); assay: Octet
T4 construct: also called cyPSMA; cyno PSMA

human PSMA [7] = target: T5, human PSMA (human, UniProt Q04609 44-750, limits assumed); assay: Octet
T5 construct: also called huPSMA; hPSMA
T5 sequence (Q04609 44-750 limits assumed): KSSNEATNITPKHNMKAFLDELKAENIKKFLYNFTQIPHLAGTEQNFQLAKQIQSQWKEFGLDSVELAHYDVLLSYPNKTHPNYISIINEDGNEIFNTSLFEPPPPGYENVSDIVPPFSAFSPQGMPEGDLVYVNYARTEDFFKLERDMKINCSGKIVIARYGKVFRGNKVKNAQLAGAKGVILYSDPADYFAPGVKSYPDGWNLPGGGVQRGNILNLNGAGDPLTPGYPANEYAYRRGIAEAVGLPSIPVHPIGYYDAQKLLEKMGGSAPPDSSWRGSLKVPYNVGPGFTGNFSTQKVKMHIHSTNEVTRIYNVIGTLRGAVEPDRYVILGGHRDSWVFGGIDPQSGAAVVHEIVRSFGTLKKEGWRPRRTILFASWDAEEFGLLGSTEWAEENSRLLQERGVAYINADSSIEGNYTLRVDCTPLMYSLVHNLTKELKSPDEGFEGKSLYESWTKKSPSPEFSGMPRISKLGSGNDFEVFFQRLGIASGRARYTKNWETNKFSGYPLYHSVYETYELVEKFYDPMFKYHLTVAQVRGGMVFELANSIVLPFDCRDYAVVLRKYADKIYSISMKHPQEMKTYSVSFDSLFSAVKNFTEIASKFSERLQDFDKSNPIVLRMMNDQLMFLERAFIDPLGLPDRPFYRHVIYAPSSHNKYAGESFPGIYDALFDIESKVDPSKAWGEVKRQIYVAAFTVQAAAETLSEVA

cynomolgus monkey PSMA [8] = target: T4, cynomolgus monkey PSMA; assay: Biacore
human PSMA [9] = target: T5, human PSMA; assay: Biacore
cynomolgus monkey PSMA [10] = target: T4, cynomolgus monkey PSMA; assay: BLI or SPR
human PSMA [11] = target: T5, human PSMA; assay: BLI or SPR
human CD3 epsilon [12] = target: T1, human CD3 epsilon; assay: Octet
[13] = target: T2, cynomolgus monkey CD3 epsilon; assay: Octet
human PSMA [14] = target: T5, human PSMA; assay: relative binding to PSMA, uTCE
human PSMA-Fc [15] = target: T6, human PSMA-Fc (human, UniProt Q04609 44-750); assay: Octet
T6 construct: also called Human PSMA-Fc fusion
T6 sequence (Q04609 44-750 limits assumed): as above

[16] = target: T7, cyno PSMA on PSMA-transfected CHO cells (cynomolgus monkey, UniProt A0A2K5VNZ0 1-750); assay: cell binding, labeled secondary antibody
T7 construct: whole, on cells; also called Cyno PSMA CHO
Method: as §1, §2

human PSMA-Fc [17] = target: T6, human PSMA-Fc; assay: Octet, PSMA-Fc
Method: Binding affinity of select PSMA PTE variants was tested by Octet.

human PSMA-Fc [18] = target: T6, human PSMA-Fc; assay: Octet; remark: listed apart in the source

Sequence of PSMA on LNCaP cells (Q04609 whole entry): as the sequence (Q04609 whole entry) above
T1 sequence (P07766 23-126 limits assumed): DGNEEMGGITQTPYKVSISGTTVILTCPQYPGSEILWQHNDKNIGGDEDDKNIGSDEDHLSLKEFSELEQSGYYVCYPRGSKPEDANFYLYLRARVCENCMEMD

B1: AMX-500(uTCE) (bispecific antibody)
chain: QVQLVESGGGVVQPGRSLRLSCAASGRTFGIYVWGWFRQAPGKEREFVGAMSWSGSNRKVSDSVKGRFTISRDNSKNTLYLQMNSLRAEDTAVYYCAASNKEYGRTWYDFNESDYWGQGTQVTVSSGGGGSGGGSELVVTQEPSLTVSPGGTVTLTCRSSNGAVTSSNYANWVQQKPGQAPRGLIGGTNKRAPGTPARFSGSLLGGKAALTLSGVQPEDEAVYYCALWYPNLWVFGGGTKLTVLSESATPESGPGTSPGATPESGPGTSESATPEVQLVESGGGIVQPGGSLRLSCAASGFTFSTYAMNWVRQAPGKGLEWVGRIRTKRNNYATYYADSVKGRFTISRDDSKNTVYLQMNSLKTEDTAVYYCVRHENFGNSYVSWFAHWGQGTLVTVSS
notes: also called uTCE from AC3896; AMX-500-P4 uTCE
in vitro cytotoxicity IC50, LNCaP cells, donor 1 (PSMA on LNCaP cells): 0.024 nM | in vitro cytotoxicity IC50, LNCaP cells, donor 2 (PSMA on LNCaP cells): 0.015 nM | in vitro cytotoxicity IC50, LNCaP cells, donor 3 (PSMA on LNCaP cells): 0.016 nM | in vitro cytotoxicity IC50, LNCaP cells, donor 5 (PSMA on LNCaP cells): 0.032 nM | Kd (human CD3 epsilon [1]): 12.8 nM | Kd [2]: 13.7 nM | Kd (human CD3 epsilon [3]): 28 nM | koff (human CD3 epsilon [3]): 0.1 s⁻¹ | kon (human CD3 epsilon [3]): 4e+06 M⁻¹ s⁻¹ | Kd [4]: 26 nM | koff [4]: 0.1 s⁻¹ | kon [4]: 5e+06 M⁻¹ s⁻¹ | EC50 [5]: 17.4 nM | in vitro cytotoxicity IC50, 22Rv1 cells, donor 1 (PSMA on 22Rv1 cells): 0.691 nM | in vitro cytotoxicity IC50, 22Rv1 cells, donor 2 (PSMA on 22Rv1 cells): 1.34 nM | in vitro cytotoxicity IC50, 22Rv1 cells, donor 3 (PSMA on 22Rv1 cells): 1.3 nM | Kd (cynomolgus monkey PSMA [6]): 201 nM | Kd (human PSMA [7]): 12.1 nM | Kd (cynomolgus monkey PSMA [8]): 230 nM | Kd (human PSMA [9]): 11.7 nM | Kd (cynomolgus monkey PSMA [10]): 410 nM | koff (cynomolgus monkey PSMA [10]): 0.043 s⁻¹ | kon (cynomolgus monkey PSMA [10]): 100000 M⁻¹ s⁻¹ | Kd (human PSMA [11]): 44 nM | koff (human PSMA [11]): 0.012 s⁻¹ | kon (human PSMA [11]): 270000 M⁻¹ s⁻¹ | Kd (human CD3 epsilon [12]): 33.2 nM | Kd [13]: 38.8 nM

B2: uTCE of AC2750 (bispecific antibody, V domains shown)
VH: QVQLVESGGGVVQPGRSLRLSCAASGRTFDVYAMGWFRQAPGKGRELVAAINWSGSNKFHADSVKGRFTISRDNSKNTLYLQMNSLRPEDTAVYFCAASTRLYGTTWYEFNDSDYWGQGTQVTVSS
notes: TCE with CD3.23; also called VHH36
binding result (human PSMA [14]): binds

B3: uTCE of AC3092 (bispecific antibody)
chain: QVQLVESGGGVVQPGRSLRLSCAASGRTFGIYVMGWVRQAPGKEREFVAAISWSGSNRLVSDSVKGRFTISRDNSKNTLYLQMNSLRAEDTAVYYCAASNRLYGRTWYDFNESDYWGQGTQVTVSSGGGGSGGGSELVVTQEPSLTVSPGGTVTLTCRSSNGAVTSSNYANWVQQKPGQAPRGLIGGTNKRAPGTPARFSGSLLGGKAALTLSGVQPEDEAVYYCALWYPNLWVFGGGTKLTVLGATPPETGAETESPGETTGGSAESEPPGEGEVQLLESGGGIVQPGGSLKLSCAASGFTFNTYAMNWVRQAPGKGLEWVARIRSKYNNYATYYADSVKDRFTISRDDSKNTVYLQMNNLKTEDTAVYYCVRHENFGNSYVSWFAHWGQGTLVTVSS
notes: also called AMX-500-P1; PSMA.5-CD3.23
Kd (human PSMA-Fc [15]): 3.9 nM | EC50 [16]: 28.8 nM | EC50 [5]: 9.06 nM | Kd (human PSMA-Fc [17]): 3.9 nM | koff (human PSMA-Fc [17]): 0.000273 s⁻¹ | kon (human PSMA-Fc [17]): 72500 M⁻¹ s⁻¹ | Kd (cynomolgus monkey PSMA [6]): 41.1 nM | Kd (human PSMA [7]): 4.5 nM | Kd (human PSMA-Fc [18]): 3.9 nM | koff (human PSMA-Fc [18]): 0.00027 s⁻¹ | kon (human PSMA-Fc [18]): 72000 M⁻¹ s⁻¹ | Kd (human CD3 epsilon [12]): 71.9 nM | Kd [13]: 64.6 nM
